1 protein from doi:10.1101/2022.07.04.498777 (bioRxiv, 2022) can be followed below.

The data set concerns the molecule itself. As to the kind of experiment: dynamic light scattering.

As to SLLTEVETPIRNEWGCRCNDSSD [Peptide G37], the binding result is listed as “binds”.
